As usually defined, the Kd is the concentration at which binding is half-saturated.

Consider 5 molecules from article doi:10.1101/2020.08.19.257725 (bioRxiv, 2020).

In test [1] the target is T1, Human serum albumin (Homo sapiens, UniProt P02768). Put plainly: pull-down.
For test [2], the target named is cynomolgus monkey albumin (Macaca fascicularis, UniProt A2V9Z4). Put plainly: pull-down.
In test [3] the target is T2, mouse albumin (Mus musculus, UniProt P07724). Put plainly: pull-down.
Test [4] addresses T2, mouse albumin. Put plainly: ELISA. A general note: In an ELISA, binding on a coated surface is turned into a signal by an enzyme label.
The target in test [5] is T1, Human serum albumin. Put plainly: SPR. On the technique in general: In SPR one partner is held on a chip, and binding of the other changes the refractive index at the surface.

T2 sequence (P07724 25-608): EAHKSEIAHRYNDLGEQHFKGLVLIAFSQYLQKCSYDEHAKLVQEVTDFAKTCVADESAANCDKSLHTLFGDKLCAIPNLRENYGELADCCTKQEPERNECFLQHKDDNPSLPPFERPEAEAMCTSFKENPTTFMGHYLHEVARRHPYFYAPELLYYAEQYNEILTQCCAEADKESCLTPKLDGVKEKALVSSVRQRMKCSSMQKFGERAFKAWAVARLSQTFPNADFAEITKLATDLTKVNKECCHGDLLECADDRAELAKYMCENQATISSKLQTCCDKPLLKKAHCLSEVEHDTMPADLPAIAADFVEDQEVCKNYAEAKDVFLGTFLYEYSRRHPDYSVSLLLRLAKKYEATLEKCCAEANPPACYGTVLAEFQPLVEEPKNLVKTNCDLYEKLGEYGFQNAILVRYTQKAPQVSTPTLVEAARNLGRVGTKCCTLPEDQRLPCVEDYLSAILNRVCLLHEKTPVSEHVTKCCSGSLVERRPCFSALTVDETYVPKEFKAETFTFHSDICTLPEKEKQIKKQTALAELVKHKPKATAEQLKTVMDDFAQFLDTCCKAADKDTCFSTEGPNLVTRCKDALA
Sequence of cynomolgus monkey albumin (A2V9Z4 25-608): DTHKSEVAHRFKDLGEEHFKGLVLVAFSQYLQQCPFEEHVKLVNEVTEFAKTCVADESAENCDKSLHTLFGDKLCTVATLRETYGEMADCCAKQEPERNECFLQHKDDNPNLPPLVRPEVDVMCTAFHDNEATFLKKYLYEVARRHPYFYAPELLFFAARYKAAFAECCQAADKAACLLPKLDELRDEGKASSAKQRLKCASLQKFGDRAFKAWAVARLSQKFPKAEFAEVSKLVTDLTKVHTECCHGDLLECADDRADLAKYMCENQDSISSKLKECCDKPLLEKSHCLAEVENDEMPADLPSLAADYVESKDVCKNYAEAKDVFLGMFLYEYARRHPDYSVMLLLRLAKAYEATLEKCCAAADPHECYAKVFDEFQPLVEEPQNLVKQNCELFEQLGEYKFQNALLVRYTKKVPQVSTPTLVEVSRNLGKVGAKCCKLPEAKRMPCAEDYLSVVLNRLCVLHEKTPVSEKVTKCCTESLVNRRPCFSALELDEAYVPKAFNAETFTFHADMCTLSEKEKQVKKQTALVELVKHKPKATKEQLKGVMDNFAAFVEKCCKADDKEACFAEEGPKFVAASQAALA

B1: Nb132 (VHH)
VHH: HVQLVESGGGLVQAGGSLRLSCAASGGTISNYGMGWLRQGPGKEREFVGSINWNGATTHYADSVKGRFIISRDNAKNTVYLQMNSLKPEDTGVYYCVAQFSVQPTLRTYDYGGQGTQVTVSE
In the case of B1, the binding result in test [1], in test [2] and in test [3] was “binds” in each case.

B2: Nb77 (VHH)
VHH: QVQLVESGGGLVQAGGSLRLSCTASGRTYEPLVMGWFRQAPGKEREFVATITPSGGSLSYADSVKGRFTVSRDNAKKTVYLQMNRLQPEDTAVYYCAAAPGVGNYRYTRQYDYWGQGTQVTVSE
As to B2, the binding result in test [4] is on record as “binds”.

B3: Nb80 (VHH)
VHH: EVQLVESGGGLVQAGGSLRLSCTASGRTFTPYTMGWFRQAPGKEREFVASILWSGNNRDYADSVKGRFAISRDNAKNTAYLQMTSLKPEDTAVYYCAAGDGLGFYRSVNQYDYWGQGTQVTVS
Molecule B3 gave an equilibrium dissociation constant (Kd) in test [5] of 166 pM. Besides, in test [4], the binding result was “binds”.

B4: Nb126 (VHH)
VHH: QVQLVESGGGLVQAGGSLRLSCAASGLTFSNYVMGWFRQAPGKEREFVAYIHWSGGRILYADSVKGRFTISRDNTKNTMYLQMNSLKPDDTAVYYCTADQYATTVLRAAGEYWGQGTQVTVSE
As to B4, in test [5], the equilibrium dissociation constant (Kd) is 251 pM.

B5: Nb13 (VHH)
VHH: HVQLVESGGELVQAGGSLRLSCAASGRTFSNYAMGWFRQAPGTEREFVAAISRSGGSTYYADSVKGRFIISRDNAKNTVWLQMNMLKPEDTSVYYCAAAEGLASGSYDYAPPLKSSWYDYWGQGTQVTVSE
As to B5, the Kd in test [5] was found to be 201 pM.
